The target of experiment [1] is human CD47 expressed on CHO-K1 cells (human) (UniProt Q08722). The experiment in a line: cell doublet formation by flow cytometry; mixed CFSE stained CHO.CD47 and CytoLightRed stained HT1080.4-1BB cells with 5 μg/ml DSP107; doublets as double-positive events; blocking with CD47 mAb or soluble 4-1BBL. Background: Flow cytometry measures light scatter and fluorescence of single cells or particles in a stream.

Experiment [2] concerns the target 4-1BB on HT1080.4-1BB cells (UniProt Q07011). The experiment is described as above.
Experiment [3] deals with human CD47:Fc protein (human) (UniProt Q08722). The experiment in a line: ELISA; dual-binding ELISA: human CD47:Fc as capture, DSP107 titrated, human biotinylated-4-1BB as detector; three separately produced batches of DSP107. (In general: An ELISA detects its analyte on a solid surface through an enzyme-linked reagent.)
Experiment [4] concerns the target Dual Signaling Protein 107 (DSP107) (human) (UniProt P78324). The experiment in a line: SEC-MALS; purified DSP107 in solution. On the technique in general: Size exclusion chromatography separates by hydrodynamic size, large species first.
In experiment [5] the target is human CD47 (surface plasmon resonance) (human) (UniProt Q08722). The experiment in a line: SPR; orientation and conditions not given (Table S2, supplementary methods).
Chain of human CD47 (surface plasmon resonance) (human) (Q08722 19-323): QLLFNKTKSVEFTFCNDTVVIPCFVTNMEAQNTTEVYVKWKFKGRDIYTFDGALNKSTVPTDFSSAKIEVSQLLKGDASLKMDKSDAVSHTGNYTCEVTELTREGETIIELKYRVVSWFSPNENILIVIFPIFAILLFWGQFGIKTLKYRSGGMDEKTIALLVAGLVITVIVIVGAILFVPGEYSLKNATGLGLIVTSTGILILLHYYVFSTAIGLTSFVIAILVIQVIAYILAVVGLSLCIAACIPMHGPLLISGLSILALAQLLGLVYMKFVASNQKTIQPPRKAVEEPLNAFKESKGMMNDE
Experiment [6] deals with cynomolgus 4-1BB (cynomolgus). The description is as above.
In experiment [7] the target is cynomolgus CD47 (cynomolgus). Described as above.
The target in experiment [8] is human 4-1BB (surface plasmon resonance) (human) (UniProt Q07011). The description is as above.
Chain of human 4-1BB (surface plasmon resonance) (human) (Q07011 24-255): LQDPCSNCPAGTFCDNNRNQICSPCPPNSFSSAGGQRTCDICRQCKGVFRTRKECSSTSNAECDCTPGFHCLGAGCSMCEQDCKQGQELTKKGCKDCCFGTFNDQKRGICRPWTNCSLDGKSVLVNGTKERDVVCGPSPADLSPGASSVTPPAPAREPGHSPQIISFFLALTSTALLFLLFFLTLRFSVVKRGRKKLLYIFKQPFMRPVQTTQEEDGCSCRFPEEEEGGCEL

Chain of 4-1BB on HT1080.4-1BB cells (Q07011 24-255): as above
Chain of human CD47 expressed on CHO-K1 cells (human) (Q08722 19-323): as the sequence (Q08722 19-323) above

Consider “Dual Signaling Protein 107 (DSP107) (from UniProt P78324 31-373; P41273 50-254)”, for which the percent doublets of CHO-K1.CD47 and HT1080.4-1BB cells in experiment [1] and in experiment [2] was 25% throughout. This substance also registered an EC50 in experiment [3] of 0.94 nM. The substance further came in with a stoichiometry N in experiment [4] of 3. Besides, the Kd was found to be 1.17 nM in experiment [5], 0.34 nM in experiment [6], 1.75 nM in experiment [7] and 0.7 nM in experiment [8].

By EC50 is commonly meant the midpoint of the concentration-response curve. A high value points to weaker potency. As usually defined, the stoichiometry N is the number of molecules, sites or subunits per partner or assembly. One may read the Kd as the equilibrium constant for the complex coming apart. High values mean weaker binding, low ones tighter binding.

The values above are taken from article PMC8919572.
